The target in the assay is Trichoplusia ni acetyl-coenzyme A carboxylase (Trichoplusia ni (endogenous in T. ni cells)). In words: cryo-EM structure; endogenous T. ni ACC (~2 uM) in 25 mM Hepes pH 8.0, 150 mM NaCl, 1 mM TCEP; refined with C2 symmetry to 3.12 Å; only the CT domain (1622-2396) modelled.

In turn, “Trichoplusia ni acetyl-coenzyme A carboxylase” gave a stoichiometry N of 2.

The record behind these values is publication PMC11735997.
